US20180100026A1
“And” between values parts separate entries of the source, which are not always exact repeats. Equal entries are not always repeated. One block for each substance: values may come before it.

What was measured:
Experiment in all cases: cell-based or functional assay
CD19 (human) = CD19 (human) (UniProt P15391)
[1] = target: anti-FITC CAR (FITC-E2 scFv, CD8 hinge and transmembrane region, 41BB and CD3 zeta) on human T cells
[2] = target: anti-FITC CAR with the 4-4-20 scFv (LV-EF1a-4-4-20-BBZ), on transduced human T cells
[3] = target: anti-FITC CAR with the 4D5Flu scFv (LV-EF1a-4D5Flu-BBZ), on transduced human T cells
[4] = target: anti-FITC CAR with the 4M5.3 scFv (LV-EF1a-4M5.3-BBZ), on transduced human T cells
[5] = target: anti-FITC CAR with the fully human FITC-E2 scFv (CD8 hinge, 41BB, CD3 zeta), on transduced human T cells
[6] = target: CD33 on MOLM14 cells (human) (UniProt P20138)
[7] = target: CD19 on NALM-6 (CD19+) cells (human) (UniProt P15391)
CD19 on NALM-6 (CD19+) cells (human), sequence (P15391 20-556): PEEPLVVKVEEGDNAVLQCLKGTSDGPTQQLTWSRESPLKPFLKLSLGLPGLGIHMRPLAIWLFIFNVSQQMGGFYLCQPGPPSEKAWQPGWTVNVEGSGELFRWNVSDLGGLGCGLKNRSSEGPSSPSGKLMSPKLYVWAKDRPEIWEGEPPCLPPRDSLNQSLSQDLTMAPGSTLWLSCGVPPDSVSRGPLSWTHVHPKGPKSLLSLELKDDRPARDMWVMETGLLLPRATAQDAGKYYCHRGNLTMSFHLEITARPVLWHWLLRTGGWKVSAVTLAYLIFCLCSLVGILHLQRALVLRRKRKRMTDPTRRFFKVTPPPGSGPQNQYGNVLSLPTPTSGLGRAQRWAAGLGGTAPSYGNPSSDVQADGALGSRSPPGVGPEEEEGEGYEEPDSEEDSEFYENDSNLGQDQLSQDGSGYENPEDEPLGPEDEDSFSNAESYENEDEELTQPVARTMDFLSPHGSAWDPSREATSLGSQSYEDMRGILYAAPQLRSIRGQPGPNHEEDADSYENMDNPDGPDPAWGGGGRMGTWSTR

CD19 (human), sequence (P15391 20-556): as above
anti-FITC CAR with the fully human FITC-E2 scFv (CD8 hinge, 41BB, CD3 zeta), on transduced human T cells, sequence (chain, as listed by the source limits assumed): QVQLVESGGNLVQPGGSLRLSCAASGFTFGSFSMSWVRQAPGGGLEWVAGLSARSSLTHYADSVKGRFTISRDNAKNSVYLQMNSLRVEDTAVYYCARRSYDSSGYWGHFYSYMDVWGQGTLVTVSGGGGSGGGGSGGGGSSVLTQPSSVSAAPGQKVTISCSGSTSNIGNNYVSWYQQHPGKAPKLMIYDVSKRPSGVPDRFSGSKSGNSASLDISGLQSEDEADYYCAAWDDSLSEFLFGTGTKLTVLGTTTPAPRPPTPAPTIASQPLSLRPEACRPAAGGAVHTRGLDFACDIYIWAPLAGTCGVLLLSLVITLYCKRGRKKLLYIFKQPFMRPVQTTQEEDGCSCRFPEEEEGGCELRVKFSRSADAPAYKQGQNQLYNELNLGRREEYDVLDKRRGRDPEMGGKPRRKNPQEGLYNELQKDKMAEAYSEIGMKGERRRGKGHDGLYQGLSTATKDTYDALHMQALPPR
CD33 on MOLM14 cells (human), sequence (P20138 18-364): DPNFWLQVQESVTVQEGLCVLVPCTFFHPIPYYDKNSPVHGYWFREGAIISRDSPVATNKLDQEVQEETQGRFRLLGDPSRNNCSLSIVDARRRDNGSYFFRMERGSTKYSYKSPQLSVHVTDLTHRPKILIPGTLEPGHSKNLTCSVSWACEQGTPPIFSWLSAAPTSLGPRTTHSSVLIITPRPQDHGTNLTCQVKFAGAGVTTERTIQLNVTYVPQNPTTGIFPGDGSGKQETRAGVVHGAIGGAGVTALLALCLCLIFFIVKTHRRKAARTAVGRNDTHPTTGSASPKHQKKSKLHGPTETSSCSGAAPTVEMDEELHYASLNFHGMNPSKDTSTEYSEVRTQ

Human IFN-g, CART19 + Nalm-6 (CD19 (human)): 915 and 924 and 951
target cell lysis, CART19 + Nalm-6, E:T 0.04:1 (CD19 (human)): 12.6 and 13
target cell lysis, CART19 + Nalm-6, E:T 0.2:1 (CD19 (human)): 21.7 and 24.5
target cell lysis, CART19 + Nalm-6, E:T printed as 1:01 (CD19 (human)): 52 and 48
target cell lysis, CART19 + Nalm-6, E:T printed as 5:01 (CD19 (human)): 75.2 and 73.3
target cell lysis, CART19 + Nalm-6, E:T printed as 15:01 (CD19 (human)): 87.3 and 88.3
Substance: CART-19: second generation CD19 specific CAR with anti-CD19 scFv (clone FMC63), 41BB and CD3zeta, on human T cells

Substance: anti-CD19 AB-FITC switch (anti-CD19 Fab, clone FMC63, FITC conjugated at light chain glycine 68 and heavy chain serine 74)
% cytotoxicity, anti-FITC CAR-T + NALM-6 + 10 pM AB-FITC, with 0 nM free fluorescein [1]: 54.8%
% cytotoxicity, anti-FITC CAR-T + NALM-6 + 10 pM AB-FITC, with 1 nM free fluorescein [1]: 57.1% and 58.1%
% cytotoxicity, anti-FITC CAR-T + NALM-6 + 10 pM AB-FITC, with 10 nM free fluorescein [1]: 56.2% and 56%
% cytotoxicity, anti-FITC CAR-T + NALM-6 + 10 pM AB-FITC, with 100 nM free fluorescein [1]: 55.7%
% cytotoxicity, anti-FITC CAR-T + NALM-6 + 10 pM AB-FITC, with 1000 nM free fluorescein [1]: 50.4% and 50.9%
% cytotoxicity, anti-FITC CAR-T + NALM-6 + 10 pM AB-FITC, with 10000 nM free fluorescein [1]: 27.4% and 31.6%

Substance: anti-CD19 AB-FITC switch (anti-human CD19 Fab, clone FMC63, FITC conjugated at light chain glycine 68 and heavy chain serine 74)
% cytotoxicity of CD19+ target cells, FIG. 68A, switch at 0.01 pM [2]: 0.526%
% cytotoxicity of CD19+ target cells, FIG. 68A, switch at 0.1 pM [2]: 32.8% and 33.3%
% cytotoxicity of CD19+ target cells, FIG. 68A, switch at 1 pM [2]: 52.3%
% cytotoxicity of CD19+ target cells, FIG. 68A, switch at 10 pM [2]: 64.9% and 66.1%
% cytotoxicity of CD19+ target cells, FIG. 68A, switch at 100 pM [2]: 71.7% and 65.6%
% cytotoxicity of CD19+ target cells, FIG. 68A, switch at 1000 pM [2]: 67.8%
% cytotoxicity of CD19+ target cells, FIG. 68A, switch at 10000 pM [2]: 74.1% and 71.5%
% cytotoxicity of CD19+ target cells, FIG. 68A, switch at 1.00E-03 pM [2]: 4.97%
% cytotoxicity of CD19+ target cells, FIG. 68B, switch at 0.1 pM [2]: 14.8% and 10.9%
% cytotoxicity of CD19+ target cells, FIG. 68B, switch at 1 pM [2]: 36.7% and 37.8%
% cytotoxicity of CD19+ target cells, FIG. 68B, switch at 10 pM [2]: 59% and 46.7%
% cytotoxicity of CD19+ target cells, FIG. 68B, switch at 100 pM [2]: 57.9%
% cytotoxicity of CD19+ target cells, FIG. 68B, switch at 1000 pM [2]: 55.8%
% cytotoxicity of CD19+ target cells, FIG. 68B, switch at 10000 pM [2]: 68.6%
% cytotoxicity of CD19+ target cells, FIG. 68A, switch at 0.01 pM [3]: 24% and 29.5%
% cytotoxicity of CD19+ target cells, FIG. 68A, switch at 0.1 pM [3]: 39.3% and 45.7%
% cytotoxicity of CD19+ target cells, FIG. 68A, switch at 1 pM [3]: 60.1%
% cytotoxicity of CD19+ target cells, FIG. 68A, switch at 10 pM [3]: 56.1% and 67.7%
% cytotoxicity of CD19+ target cells, FIG. 68A, switch at 100 pM [3]: 74.3% and 69.3%
% cytotoxicity of CD19+ target cells, FIG. 68A, switch at 1000 pM [3]: 84.8%
% cytotoxicity of CD19+ target cells, FIG. 68A, switch at 10000 pM [3]: 73.6% and 76.9%
% cytotoxicity of CD19+ target cells, FIG. 68A, switch at 1.00E-04 pM [3]: 6.29%
% cytotoxicity of CD19+ target cells, FIG. 68B, switch at 0.01 pM [3]: 1.9% and 8.37%
% cytotoxicity of CD19+ target cells, FIG. 68B, switch at 0.1 pM [3]: 10.9% and 10.4%
% cytotoxicity of CD19+ target cells, FIG. 68B, switch at 1 pM [3]: 39.4% and 32.9%
% cytotoxicity of CD19+ target cells, FIG. 68B, switch at 10 pM [3]: 63.2% and 68.1%
% cytotoxicity of CD19+ target cells, FIG. 68B, switch at 100 pM [3]: 69.4% and 61.2%
% cytotoxicity of CD19+ target cells, FIG. 68B, switch at 1000 pM [3]: 72.5% and 63.6%
% cytotoxicity of CD19+ target cells, FIG. 68B, switch at 10000 pM [3]: 69.1% and 66.8%
% cytotoxicity of CD19+ target cells, FIG. 68A, switch at 0.01 pM [4]: 21%
% cytotoxicity of CD19+ target cells, FIG. 68A, switch at 0.1 pM [4]: 46.4% and 33.9%
% cytotoxicity of CD19+ target cells, FIG. 68A, switch at 1 pM [4]: 58.2% and 56.6%
% cytotoxicity of CD19+ target cells, FIG. 68A, switch at 10 pM [4]: 58.9% and 48.9%
% cytotoxicity of CD19+ target cells, FIG. 68A, switch at 100 pM [4]: 70.5% and 71.3%
% cytotoxicity of CD19+ target cells, FIG. 68A, switch at 1000 pM [4]: 83.2%
% cytotoxicity of CD19+ target cells, FIG. 68A, switch at 10000 pM [4]: 85.7% and 72%
% cytotoxicity of CD19+ target cells, FIG. 68B, switch at 0.0001 pM [4]: 2%
% cytotoxicity of CD19+ target cells, FIG. 68B, switch at 0.001 pM [4]: 9.17%
% cytotoxicity of CD19+ target cells, FIG. 68B, switch at 0.01 pM [4]: 1.15%
% cytotoxicity of CD19+ target cells, FIG. 68B, switch at 0.1 pM [4]: 25.4%
% cytotoxicity of CD19+ target cells, FIG. 68B, switch at 1 pM [4]: 28.5% and 27.5%
% cytotoxicity of CD19+ target cells, FIG. 68B, switch at 10 pM [4]: 58.4%
% cytotoxicity of CD19+ target cells, FIG. 68B, switch at 100 pM [4]: 60.8% and 65.8%
% cytotoxicity of CD19+ target cells, FIG. 68B, switch at 1000 pM [4]: 73.4% and 71.5%
% cytotoxicity of CD19+ target cells, FIG. 68B, switch at 10000 pM [4]: 64.2% and 55.2%
% cytotoxicity of CD19+ target cells, FIG. 68A, switch at 0.01 pM [5]: 26.7% and 38.4%
% cytotoxicity of CD19+ target cells, FIG. 68A, switch at 0.1 pM [5]: 49% and 60.5%
% cytotoxicity of CD19+ target cells, FIG. 68A, switch at 1 pM [5]: 51% and 75.3%
% cytotoxicity of CD19+ target cells, FIG. 68A, switch at 10 pM [5]: 62.1% and 75.5%
% cytotoxicity of CD19+ target cells, FIG. 68A, switch at 100 pM [5]: 69.6% and 80.5%
% cytotoxicity of CD19+ target cells, FIG. 68A, switch at 1000 pM [5]: 80.6% and 99.8%
% cytotoxicity of CD19+ target cells, FIG. 68A, switch at 10000 pM [5]: 93.1% and 100%
% cytotoxicity of CD19+ target cells, FIG. 68A, switch at 1.00E-03 pM [5]: 10.3% and 25.2%
% cytotoxicity of CD19+ target cells, FIG. 68B, switch at 0.0001 pM [5]: 3.26% and 17%
% cytotoxicity of CD19+ target cells, FIG. 68B, switch at 0.001 pM [5]: 19.6%
% cytotoxicity of CD19+ target cells, FIG. 68B, switch at 0.01 pM [5]: 17.4%
% cytotoxicity of CD19+ target cells, FIG. 68B, switch at 0.1 pM [5]: 15%
% cytotoxicity of CD19+ target cells, FIG. 68B, switch at 1 pM [5]: 47.4% and 43.2%
% cytotoxicity of CD19+ target cells, FIG. 68B, switch at 10 pM [5]: 64.6% and 70.1%
% cytotoxicity of CD19+ target cells, FIG. 68B, switch at 100 pM [5]: 60.7% and 67.6%
% cytotoxicity of CD19+ target cells, FIG. 68B, switch at 1000 pM [5]: 70.4%
% cytotoxicity of CD19+ target cells, FIG. 68B, switch at 10000 pM [5]: 72.7% and 75.4%

Substance: anti-CD33 hM195 CD-FITC switch (light chain T113 and heavy chain A117) (Fab)
EC50 of cytotoxicity of anti-FITC CAR-T cells against MOLM14 cells [6]: 18.5 pM

Substance: isotype control (Millipore) (antibody)
% cytotoxicity, anti-FITC CAR-T + NALM-6 + 10 pM AB-FITC, with 0 pM isotype (IgG) [7]: 54.6% and 51.4%
% cytotoxicity, anti-FITC CAR-T + NALM-6 + 10 pM AB-FITC, with 1 pM isotype (IgG) [7]: 48.3% and 48.2%
% cytotoxicity, anti-FITC CAR-T + NALM-6 + 10 pM AB-FITC, with 10 pM isotype (IgG) [7]: 49.6% and 49.9%
% cytotoxicity, anti-FITC CAR-T + NALM-6 + 10 pM AB-FITC, with 100 pM isotype (IgG) [7]: 50% and 44.7%
% cytotoxicity, anti-FITC CAR-T + NALM-6 + 10 pM AB-FITC, with 1000 pM isotype (IgG) [7]: 45.7% and 41.6%
% cytotoxicity, anti-FITC CAR-T + NALM-6 + 10 pM AB-FITC, with 10000 pM isotype (IgG) [7]: 44.4% and 43%

Substance: non-conjugated anti-CD19 Fab (clone FMC63)
% cytotoxicity at 0.0001 pM; anti-FITC CAR-T; FIG. 72A [1]: 1.78%
% cytotoxicity at 0.0001 pM; anti-FITC CAR-T; FIG. 72C [1]: 1.12%
% cytotoxicity at 0.001 pM; anti-FITC CAR-T; FIG. 72A [1]: 0.731%
% cytotoxicity at 0.001 pM; anti-FITC CAR-T; FIG. 72B [1]: 2.73%
% cytotoxicity at 0.001 pM; anti-FITC CAR-T; FIG. 72C [1]: 5.24%
% cytotoxicity at 0.01 pM; anti-FITC CAR-T; FIG. 72A [1]: 8.15%
% cytotoxicity at 0.01 pM; anti-FITC CAR-T; FIG. 72B [1]: 2.04%
% cytotoxicity at 0.1 pM; anti-FITC CAR-T; FIG. 72A [1]: 1.96%
% cytotoxicity at 0.1 pM; anti-FITC CAR-T; FIG. 72C [1]: 2.66%
% cytotoxicity at 1 pM; anti-FITC CAR-T; FIG. 72A [1]: 4.93%
% cytotoxicity at 1 pM; anti-FITC CAR-T; FIG. 72B [1]: 3.84%
% cytotoxicity at 1 pM; anti-FITC CAR-T; FIG. 72C [1]: 1.99%
% cytotoxicity at 10 pM; anti-FITC CAR-T; FIG. 72A [1]: 3.73% and 2.56%
% cytotoxicity at 10 pM; anti-FITC CAR-T; FIG. 72B [1]: 4.56% and 2.09%
% cytotoxicity at 10 pM; anti-FITC CAR-T; FIG. 72C [1]: 1.85% and 9.94%
% cytotoxicity at 100 pM; anti-FITC CAR-T; FIG. 72A [1]: 4.61% and 8.92%
% cytotoxicity at 100 pM; anti-FITC CAR-T; FIG. 72B [1]: 3.24% and 1.4%
% cytotoxicity at 100 pM; anti-FITC CAR-T; FIG. 72C [1]: 4.45% and 12.1%
% cytotoxicity at 1000 pM; anti-FITC CAR-T; FIG. 72B [1]: 10.5% and 2.6%
% cytotoxicity at 1000 pM; anti-FITC CAR-T; FIG. 72C [1]: 2.18% and 5.61%
% cytotoxicity at 10000 pM; anti-FITC CAR-T; FIG. 72A [1]: 11.7% and 1.87%
% cytotoxicity at 10000 pM; anti-FITC CAR-T; FIG. 72B [1]: 2.58%
% cytotoxicity at 10000 pM; anti-FITC CAR-T; FIG. 72C [1]: 1.37% and 1.83%
